# Measured values reported in publication PMC5821459.
# Molecular target: L1 ORF2p-3xFLAG (ORFeus-Hs, pLD401, WT) (human) (UniProt O00370)
# Experiment: affinity purification with mass spectrometry; On-bead RNase-sensitivity assay: ORF2p-3xFLAG (pLD401) captured on α-FLAG magnetic medium from HEK-293T_LD extract in 20 mM HEPES-Na pH 7.4, 500 mM NaCl, 1% Triton X-100; medium treated with RNases A and T1 or with BSA, 30 min RT; retained material eluted with LDS; label-swapped SILAC
# UniProt O00370, sequence (O00370 whole entry): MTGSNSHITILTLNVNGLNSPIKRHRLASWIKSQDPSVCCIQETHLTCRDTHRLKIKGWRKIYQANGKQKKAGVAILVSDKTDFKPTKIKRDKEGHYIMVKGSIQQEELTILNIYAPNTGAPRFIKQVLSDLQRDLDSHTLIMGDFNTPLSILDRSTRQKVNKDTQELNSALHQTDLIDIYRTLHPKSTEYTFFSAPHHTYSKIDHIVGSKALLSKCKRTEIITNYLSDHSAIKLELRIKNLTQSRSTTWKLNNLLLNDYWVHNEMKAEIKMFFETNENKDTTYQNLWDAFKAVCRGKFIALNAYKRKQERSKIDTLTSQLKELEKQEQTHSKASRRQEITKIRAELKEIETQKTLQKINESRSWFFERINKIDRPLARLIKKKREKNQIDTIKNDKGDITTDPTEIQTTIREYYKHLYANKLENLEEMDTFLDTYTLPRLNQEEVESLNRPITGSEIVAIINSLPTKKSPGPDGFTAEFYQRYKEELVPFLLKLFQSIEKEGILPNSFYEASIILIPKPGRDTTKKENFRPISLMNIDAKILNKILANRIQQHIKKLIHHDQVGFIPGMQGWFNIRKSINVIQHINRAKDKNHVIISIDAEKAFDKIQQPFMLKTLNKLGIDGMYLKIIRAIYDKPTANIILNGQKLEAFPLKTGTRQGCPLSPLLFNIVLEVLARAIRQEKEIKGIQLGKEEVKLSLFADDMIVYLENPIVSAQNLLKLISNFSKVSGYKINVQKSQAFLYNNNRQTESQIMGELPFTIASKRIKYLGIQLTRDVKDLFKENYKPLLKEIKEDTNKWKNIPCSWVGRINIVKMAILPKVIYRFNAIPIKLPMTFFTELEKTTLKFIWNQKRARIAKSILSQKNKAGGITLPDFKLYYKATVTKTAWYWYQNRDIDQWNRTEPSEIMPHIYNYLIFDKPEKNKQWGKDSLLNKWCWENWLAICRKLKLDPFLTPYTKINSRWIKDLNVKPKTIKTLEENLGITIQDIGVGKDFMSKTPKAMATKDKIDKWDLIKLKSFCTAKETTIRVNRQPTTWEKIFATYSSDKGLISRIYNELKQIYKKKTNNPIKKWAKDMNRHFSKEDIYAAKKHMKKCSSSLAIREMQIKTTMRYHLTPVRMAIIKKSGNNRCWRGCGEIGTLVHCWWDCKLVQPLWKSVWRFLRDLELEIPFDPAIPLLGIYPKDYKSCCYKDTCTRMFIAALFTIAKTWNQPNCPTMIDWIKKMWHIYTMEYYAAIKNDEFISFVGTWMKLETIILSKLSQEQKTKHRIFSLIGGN
substance,measurement,value
Regulator of nonsense transcripts 1 (from UniProt Q92900 1-1129) (natural protein),RNase sensitivity relative to that of MOV10,62%
